# B1: Azoarcus group I ribozyme (parent)
# chain: GUGCCUUGCGCCGGGAAACCACGCAAGGGAUGGUGUCAAAUUCGGCGAAACCUAAGCGCCCGCCCGGGCGUAUGGCAACGCCGAGCCAAGCUUCGGCGCCUGCGCCGAUGAAGGUGUAGAGACUAGACGGCACCCACCUAAGGCAAACGCUAUGGUGAAGGCAUAGUCCAGGGAGUGGCGAAAGUCACACAAACCGG
# Variants of: B1
# Test: reverse-splicing fitness (ratio to wild type); higher = more active; in vitro selection; Mg2+ level not given
# How it was run: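 An in vitro group I ribozyme library with randomized positions was T7-transcribed and gel-purified. In triplicate, 10 pmol RNA in EPPS pH 7.5 was reacted with 50 pmoles of a 30-nt RNA substrate for 1 h at 37 °C across several added MgCl2 levels (1–48 mM), then stopped with EDTA. Products were reverse transcribed from a substrate-complementary primer, PCR-amplified and sequenced (HiSeq 4000). Fitness is a variant's read proportion after selection over that before, normalised to wild type.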
row,Variant,reverse-splicing fitness
1,C82U A111C A120U C150A C169U U176G,0.00241
2,C82U A111C A145U C150G U176C,0.0156
3,C82U A111C A145U C150G U176A,0.0108
4,C82U A111C A145U C150G U176G,0.00446
5,C82U A111C A145C C150U,0.0562
6,C82U A111C A145C C150G,0.024
7,C82U A111C A145C C150A,0.0154
8,C82U A111C A120U A145U C150A C169G U176G,0.00205
9,C82U A111C A120U A145U C150A C169G U176C,0.003
10,C82U A111C A120U A145U C150A C169G U176A,0.00239
11,C82U A111C A120U A145G C150G C169U,0.0067
12,C82U A111C A120U A145G C150G C169U U176C,0.00661
13,C82U A111C A120U A145G C150G C169U U176G,0.00411
14,C82U A111C A120U A145G C150G C169U U176A,0.0084
15,C82U A111C A120U A145G C150U,0.0233
16,C82U A111C A120U C169G U176A,0.0032
17,C82U A111C A120U C169G U176C,0.0039
18,C82U A111C A120U C169G U176G,0.00177
19,C82U A111C A145U C150A C169G,0.00682
20,C82U A111C A145U C150A C169A,0.00884
21,C82U A111C A145U C150A C169U,0.0103

row,Variant,reverse-splicing fitness
1,C82U A111C A120U A145G C169U U176G,0.00206
2,C82U A111C A120U A145G C169U U176C,0.00342
3,C82U A111C A120U A145G C169U U176A,0.00527
4,C82U A111C A120U C150G C169G U176C,0.00317
5,C82U A111C A120U C150G C169G U176G,0.00254
6,C82U A111C A120U C150G C169G U176A,0.00425
7,C82U A111C A145C C169G U176C,0.0207
8,C82U A111C A145C C169G U176A,0.0274
9,C82U A111C A145C C169G U176G,0.00669
10,C82U A111C A120U A145U C150G C169U U176C,0.00264
11,C82U A111C A120U A145U C150G C169U U176A,0.00227
12,C82U A111C A120U A145U C150G C169U U176G,0.0025
13,C82U A111C A120U A145G C150U C169G,0.00549
14,C82U A111C A120U A145G C150U C169U,0.00521
15,C82U A111C A120U A145G C150U C169A,0.00649
16,C82U A111C A145C C169G,0.00983
17,C82U A111C A145C C169U,0.0113
18,C82U A111C A145C C169A,0.00714
19,C82U A111C A120U U176G,0.00301
20,C82U A111C A120U U176A,0.00719
21,C82U A111C A120U U176C,0.0103

row,Variant,reverse-splicing fitness
1,C82U A111C A120U A145U C150G C169A U176C,0.00322
2,C82U A111C A120U A145U C150G C169A U176A,0.00336
3,C82U A111C A120U A145U C150G C169A U176G,0.00233
4,C82U A111C A145U C150G C169G,0.00721
5,C82U A111C A145U C150G C169A,0.00756
6,C82U A111C A145U C150G C169U,0.00877
7,C82U A111C A120U A145U C150U C169G U176C,0.00305
8,C82U A111C A120U A145U C150U C169G U176A,0.00231
9,C82U A111C A120U A145U C150U C169G U176G,0.00201
10,C82U A111C A120U C169A,0.00322
11,C82U A111C A120U C169G,0.00401
12,C82U A111C A120U C169U,0.00529
13,C82U A111C A120U C150U U176G,0.00332
14,C82U A111C A120U C150U U176A,0.00642
15,C82U A111C A120U C150U U176C,0.00907
16,C82U A111C A145C C150U C169G U176G,0.0077
17,C82U A111C A145C C150U C169G U176A,0.0257
18,C82U A111C A145C C150U C169G U176C,0.0168
19,C82U A111C A145G C169G U176A,0.0236
20,C82U A111C A145G C169G U176C,0.0306
21,C82U A111C A145G C169G U176G,0.00682

row,Variant,reverse-splicing fitness
1,C82U A111C A120U C150U C169G U176A,0.00387
2,C82U A111C A120U C150U C169G U176C,0.00314
3,C82U A111C A120U C150U C169G U176G,0.00228
4,C82U A111C A120U A145U C150G C169G U176A,0.00332
5,C82U A111C A120U A145U C150G C169G U176G,0.0024
6,C82U A111C A120U A145U C150G C169G U176C,0.00224
7,C82U A111C A145C C150G C169U U176G,0.00606
8,C82U A111C A145C C150G C169U U176C,0.0106
9,C82U A111C A145C C150G C169U U176A,0.00919
10,C82U A111C A120U A145U C169U U176A,0.00256
11,C82U A111C A120U A145U C169U U176G,0.00166
12,C82U A111C A120U A145U C169U U176C,0.00255
13,C82U A111C A120U A145G C169G U176G,0.0017
14,C82U A111C A120U A145G C169G U176C,0.00344
15,C82U A111C A120U A145G C169G U176A,0.00323
16,C82U A111C A145G C150A C169U U176A,0.0144
17,C82U A111C A145G C150A C169U U176G,0.00739
18,C82U A111C A145G C150A C169U U176C,0.0157
19,C82U A111C A145G C150A C169G U176A,0.014
20,C82U A111C A145G C150A C169G U176G,0.00685
21,C82U A111C A145G C150A C169G U176C,0.0256

# Reference: the RNAGym collection of RNA variant scans (doi:10.1093/molbev/msab373)
